Residue numbers refer to the chain shown, from its start. In names and notes the source's numbering stands.

The target of series [1] is T1, Pur-alpha 56-287 (C272S) (human, UniProt Q00577 56-287, C272S).
T1 sequence: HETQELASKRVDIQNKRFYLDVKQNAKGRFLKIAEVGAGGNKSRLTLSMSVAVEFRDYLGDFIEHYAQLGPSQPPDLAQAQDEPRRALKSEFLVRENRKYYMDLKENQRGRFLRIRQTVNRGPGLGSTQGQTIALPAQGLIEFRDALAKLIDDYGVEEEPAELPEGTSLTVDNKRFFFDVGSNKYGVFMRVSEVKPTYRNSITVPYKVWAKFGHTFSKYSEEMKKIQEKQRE
The series can be described thus: filter binding; replicates 491, 438, 306; 2.5 mM MgCl2; 100 mM NaCl, 10 mM HEPES pH 8.0, 2.5 mM MgCl2, 1 mM DTT; 0.5 nM labeled oligo, 0-10 uM protein, 20 min, room temperature. Conditions: protein: recombinant; tags: GST removed by protease (tag cleaved); chain copies: 2; label: 5'-32P; single strand.

In series [2] the target is T1, Pur-alpha 56-287 (C272S). The series can be described thus: filter binding; replicates 207, 258; 2.5 mM MgCl2; 100 mM NaCl, 10 mM HEPES pH 8.0, 2.5 mM MgCl2, 1 mM DTT; 0.5 nM labeled oligo, 0-10 uM protein, 20 min, room temperature. Conditions: protein: recombinant; tags: GST removed by protease (tag cleaved); chain copies: 2; label: 5'-32P; single strand.
Series [3] deals with T1, Pur-alpha 56-287 (C272S). As to the kind of experiment: filter binding; protein 0-10 uM; 2.5 mM MgCl2; 100 mM NaCl, 10 mM HEPES pH 8.0, 2.5 mM MgCl2, 1 mM DTT; 0.5 nM labeled oligo, 0-10 uM protein, 20 min, room temperature. The note with it: protein: recombinant; tags: GST removed by protease (tag cleaved); chain copies: 2; label: 5'-32P; single strand.
Series [4] deals with the molecule itself. As to the kind of experiment: crystal structure; selenomethionine-substituted crystals grown at 4°C in 2.8 M sodium formate, protein 1.2 mg/mL, stoichiometric addition of the DNA oligomer hTel12 (not visible in the model); SAD, 1.9 Å.
Series [5] deals with the molecule itself. The series can be described thus: crystal structure; native crystals grown at 21°C, hanging drop, protein 2.2 mg/ml, 100 mM HEPES (pH 7.2), 20% PEG 3350; molecular replacement, 2.2 Å.

In the case of AGGGTTAGGGTT (ssDNA) [hTel12], the Kd (commonly a measure of binding affinity in units of concentration) with Pur-alpha 56-287 (C272S) [1] is 411 ± 95 nM.

Take GGAGGGGGAGGC (ssDNA) [JCVupTAR]: the Kd with Pur-alpha 56-287 (C272S) [2] turned out to be 233 ± 36 nM.

As to CCTCCGCCTCCG (ssDNA) [Control], the binding result with Pur-alpha 56-287 (C272S) [3] was “no binding”.

B1: selenomethionine-substituted B. burgdorferi Pur-α 8–105 (L17M, F27M, I64M) (domain or fragment)
chain: ERGEVYSEKMFTESERTYFMNVKENRKGDYFLNIVESKRSPSGDFERHSIFVYEENMNEFESNLLKAIAVIKQKVSTGSVGSSARHNKGYGEYGERSK
modifications: selenomethionine-substituted (methionines introduced at positions 17, 27 and 64; no other methionines in this fragment)
notes: Expressed from the pGEX6p1 vector (BamHI/XhoI); Only amino acids 8 to 84 are visible in the electron density; also called SeMet; selenomethionine-derivatized protein; source: E. coli BL21, purified (glutathione column, protease cleavage, Q column, heparin column, size-exclusion chromatography)
With B1, in series [4], the stoichiometry N (as a rule, a count of units in the complex or per binding partner) stood at 2.

B2: B. burgdorferi Pur-α 8–105 (domain or fragment, Borrelia burgdorferi B31, UniProt O51076-2 8-105, looked up)
chain: B1 chain with M10L, M20F, M57I
notes: Pur-α (hypothetical protein BB0047) of Borrelia burgdorferi B31, 127-amino acid gene product, amino acids 8 to 105; Expressed from the pGEX6p1 vector (BamHI/XhoI); also called native protein; BB0047 fragment; source: E. coli BL21, purified (glutathione column, protease cleavage, Q column, heparin column, size-exclusion chromatography)
In the case of B2, in series [5], the binding result is given as “binds”.
